Results taken from IntAct's records for PubMed 22328087.

B1: Membrane protein MLC1 (Homo sapiens), Q15049 (parent)
chain: MTQEPFREELAYDRMPTLERGRQDPASYAPDAKPSDLQLSKRLPPCFSHKTWVFSVLMGSCLLVTSGFSLYLGNVFPAEMDYLRCAAGSCIPSAIVSFTVSRRNANVIPNFQILFVSTFAVTTTCLIWFGCKLVLNPSAININFNLILLLLLELLMAATVIIAARSSEEDCKKKKGSMSDSANILDEVPFPARVLKSYSVVEVIAGISAVLGGIIALNVDDSVSGPHLSVTFFWILVACFPSAIASHVAAECPSKCLVEVLIAISSLTSPLLFTASGYLSFSIMRIVEMFKDYPPAIKPSYDVLLLLLLLVLLLQAGLNTGTAIQCVRFKVSARLQGASWDTQNGPQERLAGEVARSPLKEFDKEKAWRAVVVQMAQ

Variants of: B1
Conditions: with at1b1_human ATP1B1, P05026

| Variant | effect of a mutation on the interaction |
| --- | --- |
| S246R | decreasing interaction |
| S280L | decreasing interaction |

Variants of: B1
Conditions: with at1b1_human ATP1B1, P05026
Remark: another data set of the same source

| Variant | effect of a mutation on the interaction |
| --- | --- |
| S280L | disrupting interaction |
| C125R | disrupting interaction |
